Assay results taken from publication PMC3043165 (2011).
Where no end group is shown, it is not given here.

T1: integrin αvβ3 (Homo sapiens, UniProt P06756)
T1 chain 1: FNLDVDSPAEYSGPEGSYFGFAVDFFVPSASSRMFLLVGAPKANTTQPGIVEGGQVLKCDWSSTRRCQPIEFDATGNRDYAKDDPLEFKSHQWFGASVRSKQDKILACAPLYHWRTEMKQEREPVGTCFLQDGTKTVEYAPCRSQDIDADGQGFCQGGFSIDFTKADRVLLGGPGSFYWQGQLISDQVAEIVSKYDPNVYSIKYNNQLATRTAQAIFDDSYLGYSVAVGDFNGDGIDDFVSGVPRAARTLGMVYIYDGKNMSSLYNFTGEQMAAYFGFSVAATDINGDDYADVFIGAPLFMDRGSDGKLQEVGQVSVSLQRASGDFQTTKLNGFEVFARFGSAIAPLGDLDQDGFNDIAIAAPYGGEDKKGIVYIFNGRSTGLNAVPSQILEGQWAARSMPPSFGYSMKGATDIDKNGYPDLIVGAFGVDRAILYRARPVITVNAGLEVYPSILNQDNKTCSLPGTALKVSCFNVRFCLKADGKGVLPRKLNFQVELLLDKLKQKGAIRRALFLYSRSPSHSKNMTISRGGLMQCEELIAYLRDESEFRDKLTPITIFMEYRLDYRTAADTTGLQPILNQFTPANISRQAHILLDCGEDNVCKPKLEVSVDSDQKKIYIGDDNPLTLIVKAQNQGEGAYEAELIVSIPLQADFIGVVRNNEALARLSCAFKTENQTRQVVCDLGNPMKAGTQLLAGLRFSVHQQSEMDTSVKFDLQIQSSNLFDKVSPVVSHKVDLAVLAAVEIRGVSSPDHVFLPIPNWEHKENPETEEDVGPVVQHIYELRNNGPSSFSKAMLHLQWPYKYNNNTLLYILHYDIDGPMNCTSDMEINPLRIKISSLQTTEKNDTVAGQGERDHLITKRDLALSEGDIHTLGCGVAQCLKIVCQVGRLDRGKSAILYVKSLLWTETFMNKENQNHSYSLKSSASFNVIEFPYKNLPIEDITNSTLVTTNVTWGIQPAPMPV
T1 chain 2: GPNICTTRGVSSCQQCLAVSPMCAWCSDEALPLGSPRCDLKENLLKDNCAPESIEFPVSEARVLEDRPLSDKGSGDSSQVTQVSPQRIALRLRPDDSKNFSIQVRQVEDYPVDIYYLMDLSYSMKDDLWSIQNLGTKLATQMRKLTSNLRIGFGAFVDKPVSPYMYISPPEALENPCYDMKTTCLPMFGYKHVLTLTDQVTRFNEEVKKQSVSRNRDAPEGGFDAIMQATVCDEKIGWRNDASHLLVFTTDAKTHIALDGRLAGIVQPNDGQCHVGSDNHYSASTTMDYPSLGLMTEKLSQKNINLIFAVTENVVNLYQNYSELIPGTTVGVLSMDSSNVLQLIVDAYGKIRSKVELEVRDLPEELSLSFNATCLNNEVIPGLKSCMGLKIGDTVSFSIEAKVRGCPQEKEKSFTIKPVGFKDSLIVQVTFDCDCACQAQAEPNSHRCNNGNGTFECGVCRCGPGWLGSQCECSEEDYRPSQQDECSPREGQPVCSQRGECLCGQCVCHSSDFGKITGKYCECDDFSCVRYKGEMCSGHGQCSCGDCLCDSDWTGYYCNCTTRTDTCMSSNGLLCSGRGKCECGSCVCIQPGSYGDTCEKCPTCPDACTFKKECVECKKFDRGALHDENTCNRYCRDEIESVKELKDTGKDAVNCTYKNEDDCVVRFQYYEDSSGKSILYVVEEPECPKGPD

T2: integrin αvβ5 (Homo sapiens, UniProt P06756)
T2 chain 1: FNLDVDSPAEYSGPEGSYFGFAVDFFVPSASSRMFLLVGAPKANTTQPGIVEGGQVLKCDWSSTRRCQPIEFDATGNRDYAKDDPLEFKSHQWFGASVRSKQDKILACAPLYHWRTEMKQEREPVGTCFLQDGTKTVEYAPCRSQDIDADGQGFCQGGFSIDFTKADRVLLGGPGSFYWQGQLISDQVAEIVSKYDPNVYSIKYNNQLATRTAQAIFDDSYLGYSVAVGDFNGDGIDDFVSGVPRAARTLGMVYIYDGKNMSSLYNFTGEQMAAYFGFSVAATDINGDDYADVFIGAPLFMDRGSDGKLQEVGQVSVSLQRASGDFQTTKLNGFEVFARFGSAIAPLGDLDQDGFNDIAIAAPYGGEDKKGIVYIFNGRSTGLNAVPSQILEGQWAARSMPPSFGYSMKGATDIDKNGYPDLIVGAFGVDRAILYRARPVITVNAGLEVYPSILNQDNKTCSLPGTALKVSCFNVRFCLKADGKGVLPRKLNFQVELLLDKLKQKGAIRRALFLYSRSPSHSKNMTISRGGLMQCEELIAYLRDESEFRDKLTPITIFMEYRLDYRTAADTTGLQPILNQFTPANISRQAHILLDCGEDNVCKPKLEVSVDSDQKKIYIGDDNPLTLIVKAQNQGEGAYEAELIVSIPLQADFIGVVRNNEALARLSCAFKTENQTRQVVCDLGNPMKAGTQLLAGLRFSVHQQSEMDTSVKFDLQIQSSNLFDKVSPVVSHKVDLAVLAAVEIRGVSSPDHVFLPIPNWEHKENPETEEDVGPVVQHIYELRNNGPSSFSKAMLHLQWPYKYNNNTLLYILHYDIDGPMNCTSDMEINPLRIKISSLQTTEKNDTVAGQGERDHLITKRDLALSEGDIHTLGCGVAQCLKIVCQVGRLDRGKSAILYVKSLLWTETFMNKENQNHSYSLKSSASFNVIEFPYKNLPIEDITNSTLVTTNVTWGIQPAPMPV
T2 chain 2: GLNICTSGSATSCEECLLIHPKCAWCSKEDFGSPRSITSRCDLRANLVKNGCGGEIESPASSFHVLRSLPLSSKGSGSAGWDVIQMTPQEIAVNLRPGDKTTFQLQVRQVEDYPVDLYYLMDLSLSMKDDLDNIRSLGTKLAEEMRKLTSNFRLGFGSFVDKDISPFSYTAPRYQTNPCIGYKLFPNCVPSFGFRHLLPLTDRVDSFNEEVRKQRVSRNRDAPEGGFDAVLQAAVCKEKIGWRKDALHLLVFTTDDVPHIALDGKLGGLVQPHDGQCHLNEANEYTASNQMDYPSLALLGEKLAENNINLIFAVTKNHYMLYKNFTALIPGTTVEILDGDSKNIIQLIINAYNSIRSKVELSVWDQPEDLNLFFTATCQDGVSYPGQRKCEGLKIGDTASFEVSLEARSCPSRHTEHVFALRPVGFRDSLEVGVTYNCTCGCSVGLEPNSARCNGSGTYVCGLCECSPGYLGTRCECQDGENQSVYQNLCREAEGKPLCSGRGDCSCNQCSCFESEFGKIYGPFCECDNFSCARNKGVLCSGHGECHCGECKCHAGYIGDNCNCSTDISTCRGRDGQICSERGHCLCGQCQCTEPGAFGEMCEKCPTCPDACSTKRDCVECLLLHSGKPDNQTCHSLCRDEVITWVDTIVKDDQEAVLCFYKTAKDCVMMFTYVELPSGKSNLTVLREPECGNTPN


How the values were obtained:
integrin αvβ3 = biological target: T1, integrin αvβ3; test: competitive solid-phase binding assay with biotinylated vitronectin
integrin αIIbβ3 = integrin αIIbβ3 (Homo sapiens, UniProt P08514); test: competitive solid-phase binding assay with biotinylated fibronectin
integrin αvβ5 = biological target: T2, integrin αvβ5; test: competitive solid-phase binding assay with biotinylated vitronectin

| Binder | IC50 (integrin αvβ3) | IC50 (integrin αIIbβ3) | IC50 (integrin αvβ5) |
| --- | --- | --- | --- |
| GRGDS (not fully specified) [GRGDS-CNP 5% (7 peptides per CNP)] | 78.5 nM | > 1000 nM | > 1000 nM |
| GRGDS (not fully specified) [GRGDS-CNP 50% (70 peptides per CNP)] | 1.08 nM | – | – |

More lines, in order of falling IC50 (integrin αvβ3), values ahead:

| IC50 (integrin αvβ3) | IC50 (integrin αIIbβ3) | IC50 (integrin αvβ5) | Binder |
| --- | --- | --- | --- |
| 12.5 nM | – | – | GRGDS (not fully specified) [GRGDS-CNP 10% (14 peptides per CNP)] |
| 5.21 nM | – | – | GRGDS (not fully specified) [GRGDS-CNP 20% (28 peptides per CNP)] |
